Patent USRE45968 (SIGMA TAU INDUSTRIE FARMACEUTICHE RIUNITE S PA, dated 2016)

T1: Human CEA protein, purified from colon carcinoma and liver metastases (human, UniProt P06731 35-685, limits assumed)
T1 construct: Bought; Biotinylated for the selections; also called carcino-embryonic antigen
T1 sequence (looked up): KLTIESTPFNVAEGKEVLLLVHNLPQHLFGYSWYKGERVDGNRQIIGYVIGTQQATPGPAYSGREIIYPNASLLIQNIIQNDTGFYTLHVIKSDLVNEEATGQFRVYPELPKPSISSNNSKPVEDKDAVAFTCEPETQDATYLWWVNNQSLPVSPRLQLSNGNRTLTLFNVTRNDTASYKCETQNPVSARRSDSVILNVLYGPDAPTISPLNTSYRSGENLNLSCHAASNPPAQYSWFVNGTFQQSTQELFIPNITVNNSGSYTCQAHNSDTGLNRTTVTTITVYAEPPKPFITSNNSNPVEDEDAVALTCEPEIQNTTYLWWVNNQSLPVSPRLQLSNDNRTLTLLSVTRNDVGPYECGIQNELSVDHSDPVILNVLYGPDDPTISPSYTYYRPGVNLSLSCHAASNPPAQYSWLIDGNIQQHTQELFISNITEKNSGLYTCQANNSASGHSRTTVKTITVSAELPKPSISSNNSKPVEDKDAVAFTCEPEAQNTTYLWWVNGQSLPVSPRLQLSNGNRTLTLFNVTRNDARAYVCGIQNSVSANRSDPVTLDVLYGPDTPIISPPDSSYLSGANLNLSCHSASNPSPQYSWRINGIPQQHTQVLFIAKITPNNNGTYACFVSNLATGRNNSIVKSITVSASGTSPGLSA


Columns and labels:
[1] = target: T1, Human CEA protein, purified from colon …; experiment: Surface Plasmon Resonance (Biacore), soluble scFv
[2] = target: T2, GST-fused MUC1 recombinant protein, containing a 107-aa MUC1 sequence, containing 5.3 repeats (UniProt P08515 1-218 = GST; P15941 126-232); experiment: Surface Plasmon Resonance (Biacore), soluble scFv
T2 construct: Biotinylated for the selections; also called Recombinant MUC1 protein; MUC1 tumor antigen

Binder | Kd [1] [nM] | Kd [2] [nM]
CB37/3B scFv antibody, soluble form (scFv, domain: first two amino acids of the mature AP protein; not shown: FLAG/His-tail at the carboxyl-terminus (pKM16)) scFv: RTMEEVQLVQSGGGLIQPGGSLRLSCVASEFNVRSNYMSWVRQAPGKGLEWVSVMYDGGSTYYADSVKGRFTISRDNSKNTVYLQMNSLRAEDTAVYYCARGGLGLPTIAPWEIWGQGTMVTVSSGGGGSGGGGSGGGGSSYVLTQPPSVSVAPGKTATITCAGNNIGSNSVYWYQQKPGLAPVLVVYDDRDRPSGIHERFSGSKSGNTATLTISRVEAGDEADYSCQVWDPSSDHLYVFGTGTQLTVLGAA | 3.66 | 
CB37/9C scFv antibody, soluble form (scFv, domain: first two amino acids of the mature AP protein; cloned in pKM16 and produced in soluble form; not shown: FLAG/His-tail at the carboxyl-terminus (pKM16)) scFv: RTMEEVQLVQSGGGLIQPGGSLRLSCVASEFNVRSNYMSWVRQAPGKGLEWVSVMYDGGSTYYADSVKGRFTISRDNSKNTVYLQMNSLRAEDTAVYYCARGGLGLPTIASWEIWGQGTMVTVSSGGGGSGGGGSGGGGSSYVLTQPPSVSVAPGKTATITCAGNNIGSNSVYWYQQKPGLAPVLVVYDDRDRPSGLPGRFSGSKSGNTATLTISRVEAGDEADYSCQVWDPSSDHLYVFGTGTQLTVLGAA | 1.42 | 
MB5/C′3 scFv antibody, soluble form (scFv, domain: first two amino acids of the mature AP protein; cloned in pKM16 and produced in soluble form; not shown: FLAG/His-tail at the carboxyl-terminus (pKM16)) scFv: RTMEQVQLVQSGAEVKKPGASVKVSCKASGYTFTASYMHWVRQAPGQGLEWMGWFNPNSGGTNYAQKFQGRVTMTGDTSTSTGYMELSRLTSDDAAVYYCARDRASAMGVWGQGTLVTVSSGGGGSGGGGSGGGGSQSALTQPASVSGSPGQSITISCTGTSSDVGGYNYVSWYQQHPGKAPKLMIYDVTNRPSGVSSRFSGSKSGNTASLTISGLQTEDEADYYCNSFTSSNTYVFGTGTQLTVLGAA |  | 23.1
MB5/C′1 scFv antibody, soluble form (scFv, domain: first two amino acids of the mature AP protein; cloned in pKM16 and produced in soluble form; also called MBB5/C′1; not shown: FLAG/His-tail at the carboxyl-terminus (pKM16)) scFv: RTMEEVQLQESGAEVKKPGASVKVSCKASGYTFTASYMHWVRQAPGQGLEWMGWFNPNSGGTNYAQKFQGRVTMTGDTSTSTGYMELSRLTSDDAAVYYCARDRASAMGVWGQGTLVTVSSGGGGSGGGGSGGGGSQSALTQPASVSGSPGQSITISCTGTSSDVGGYNYVSWYQQHPGKAPKLMIYDVSHRPSGISNRFSGSKSGNTASLTISRLQAEDEADYYCSSYTSSNTFIFGTGTQLTVLGAA |  | 9.46
